The supplement of paper PMC9112550, “Optimization of the antimicrobial peptide Bac7 by deep mutational scanning” (BMC Biology, 2022)
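Also: peptides expressed intracellularly from a pBAD plasmid library in pooled LB shake-flask culture, induced with 0.3% L-arabinose, DNA abundance read by NGS, three biological replicates, DESeq2 with apeglm shrinkage.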

Each sequence was assayed on Escherichia coli TOP10 (assay: shrunken log2 fold change of peptide-encoding DNA abundance (4.5 h post-induction vs induction); higher = less antimicrobial activity (less host growth inhibition)). Details: time post-induction: 4.5 h; library: site-saturation at positions 5, 18, 19, 20.
In the case of RRIRKRPPRLPRPRPRPEIVPRP, the “shrunken log2 fold change” value is reported as 1.08. With RRIRTRPPRLPRPRPRPTPNPRP the “shrunken log2 fold change” value was 0.293. In the case of RRIRHRPPRLPRPRPRPFHQPRP, the “shrunken log2 fold change” value is reported as -0.01. RRIRVRPPRLPRPRPRPMGTPRP was tested, and the “shrunken log2 fold change” value was 0.113. With RRIRPRPPRLPRPRPRPRATPRP the “shrunken log2 fold change” value was 0.261. With RRIRMRPPRLPRPRPRPPGAPRP the “shrunken log2 fold change” value was 2.06. RRIRFRPPRLPRPRPRPTDIPRP was tested, and the “shrunken log2 fold change” value was 0.0284. With RRIRSRPPRLPRPRPRPNQWPRP the “shrunken log2 fold change” value was 0.0342. For RRIRHRPPRLPRPRPRPYICPRP, the “shrunken log2 fold change” value was -0.153. In the case of RRIRFRPPRLPRPRPRPLVSPRP, the “shrunken log2 fold change” value is reported as -0.425. For RRIRGRPPRLPRPRPRPPGSPRP, the “shrunken log2 fold change” value was 1.09. In the case of RRIRARPPRLPRPRPRPLLTPRP, the “shrunken log2 fold change” value is reported as 0.667. RRIRWRPPRLPRPRPRPICDPRP was tested, and the “shrunken log2 fold change” value was 0.0755. With RRIRTRPPRLPRPRPRPLHHPRP the “shrunken log2 fold change” value was -0.494. RRIRQRPPRLPRPRPRPYPKPRP was tested, and the “shrunken log2 fold change” value was 0.00727. RRIRSRPPRLPRPRPRPFAFPRP was tested, and the “shrunken log2 fold change” value was -0.0807. In the case of RRIRIRPPRLPRPRPRPFCVPRP, the “shrunken log2 fold change” value is reported as -0.713. In the case of RRIRARPPRLPRPRPRPWEIPRP, the “shrunken log2 fold change” value is reported as -0.0378. In the case of RRIRWRPPRLPRPRPRPYCFPRP, the “shrunken log2 fold change” value is reported as -0.379. RRIRPRPPRLPRPRPRPVMGPRP was tested, and the “shrunken log2 fold change” value was 0.149. For RRIRNRPPRLPRPRPRPCFCPRP, the “shrunken log2 fold change” value was -0.337. RRIRDRPPRLPRPRPRPMEVPRP was tested, and the “shrunken log2 fold change” value was 0.142. With RRIRNRPPRLPRPRPRPMVAPRP the “shrunken log2 fold change” value was 0.0624. In the case of RRIRWRPPRLPRPRPRPARRPRP, the “shrunken log2 fold change” value is reported as 0.495. With RRIRTRPPRLPRPRPRPDSFPRP the “shrunken log2 fold change” value was 0.033. With RRIRLRPPRLPRPRPRPWQMPRP the “shrunken log2 fold change” value was 0.123. In the case of RRIRPRPPRLPRPRPRPGSNPRP, the “shrunken log2 fold change” value is reported as -0.082. With RRIRARPPRLPRPRPRPIGHPRP the “shrunken log2 fold change” value was 0.0734. With RRIRDRPPRLPRPRPRPMNLPRP the “shrunken log2 fold change” value was -0.1. In the case of RRIRFRPPRLPRPRPRPSQMPRP, the “shrunken log2 fold change” value is reported as -0.208. For RRIRFRPPRLPRPRPRPPRHPRP, the “shrunken log2 fold change” value was 0.411. For RRIRSRPPRLPRPRPRPIVIPRP, the “shrunken log2 fold change” value was -0.872. For RRIRDRPPRLPRPRPRPPPPPRP, the “shrunken log2 fold change” value was 0.899. In the case of RRIRTRPPRLPRPRPRPCCIPRP, the “shrunken log2 fold change” value is reported as -0.155. With RRIRQRPPRLPRPRPRPCNFPRP the “shrunken log2 fold change” value was 0.0393. With RRIRPRPPRLPRPRPRPYWWPRP the “shrunken log2 fold change” value was 0.0199. For RRIRVRPPRLPRPRPRPQQYPRP, the “shrunken log2 fold change” value was -0.258. RRIRERPPRLPRPRPRPHAIPRP was tested, and the “shrunken log2 fold change” value was -0.234. RRIRTRPPRLPRPRPRPACYPRP was tested, and the “shrunken log2 fold change” value was -0.0845. RRIRMRPPRLPRPRPRPSKFPRP was tested, and the “shrunken log2 fold change” value was -0.0303. RRIRRRPPRLPRPRPRPNRPPRP was tested, and the “shrunken log2 fold change” value was 0.198. For RRIRMRPPRLPRPRPRPSNDPRP, the “shrunken log2 fold change” value was 0.184. With RRIRTRPPRLPRPRPRPMSLPRP the “shrunken log2 fold change” value was -0.147. For RRIRDRPPRLPRPRPRPGDPPRP, the “shrunken log2 fold change” value was 0.293. RRIRCRPPRLPRPRPRPLECPRP was tested, and the “shrunken log2 fold change” value was -0.354. For RRIRFRPPRLPRPRPRPGKRPRP, the “shrunken log2 fold change” value was -0.0962. In the case of RRIRHRPPRLPRPRPRPGWTPRP, the “shrunken log2 fold change” value is reported as -0.00563. In the case of RRIRPRPPRLPRPRPRPFYHPRP, the “shrunken log2 fold change” value is reported as -0.547. With RRIRTRPPRLPRPRPRPLECPRP the “shrunken log2 fold change” value was -0.0489. RRIRERPPRLPRPRPRPVLQPRP was tested, and the “shrunken log2 fold change” value was -0.347. In the case of RRIRDRPPRLPRPRPRPVYQPRP, the “shrunken log2 fold change” value is reported as -0.263. For RRIRYRPPRLPRPRPRPNRTPRP, the “shrunken log2 fold change” value was -0.211. In the case of RRIRARPPRLPRPRPRPARLPRP, the “shrunken log2 fold change” value is reported as 0.582. With RRIRTRPPRLPRPRPRPHQKPRP the “shrunken log2 fold change” value was -0.127. In the case of RRIRPRPPRLPRPRPRPAMVPRP, the “shrunken log2 fold change” value is reported as 0.844. For RRIRFRPPRLPRPRPRPGYTPRP, the “shrunken log2 fold change” value was -0.427. RRIRYRPPRLPRPRPRPWMDPRP was tested, and the “shrunken log2 fold change” value was -0.159. With RRIRYRPPRLPRPRPRPGCGPRP the “shrunken log2 fold change” value was -0.0402. With RRIRCRPPRLPRPRPRPVGIPRP the “shrunken log2 fold change” value was -0.24. RRIRARPPRLPRPRPRPPMTPRP was tested, and the “shrunken log2 fold change” value was 0.88. RRIRDRPPRLPRPRPRPRKTPRP was tested, and the “shrunken log2 fold change” value was 0.379. In the case of RRIRFRPPRLPRPRPRPPFQPRP, the “shrunken log2 fold change” value is reported as 0.258. For RRIRRRPPRLPRPRPRPCSDPRP, the “shrunken log2 fold change” value was 0.00368. In the case of RRIRQRPPRLPRPRPRPCAKPRP, the “shrunken log2 fold change” value is reported as 0.0917. For RRIRWRPPRLPRPRPRPGMAPRP, the “shrunken log2 fold change” value was 0.627. For RRIRHRPPRLPRPRPRPGYMPRP, the “shrunken log2 fold change” value was -0.49. For RRIRMRPPRLPRPRPRPEEEPRP, the “shrunken log2 fold change” value was 0.0412. In the case of RRIRTRPPRLPRPRPRPHDLPRP, the “shrunken log2 fold change” value is reported as -0.0128. For RRIRSRPPRLPRPRPRPCQRPRP, the “shrunken log2 fold change” value was -0.0305. With RRIRKRPPRLPRPRPRPAAVPRP the “shrunken log2 fold change” value was 0.188. In the case of RRIRGRPPRLPRPRPRPCPWPRP, the “shrunken log2 fold change” value is reported as -0.149. For RRIRHRPPRLPRPRPRPEGGPRP, the “shrunken log2 fold change” value was -0.0289. For RRIRDRPPRLPRPRPRPAYCPRP, the “shrunken log2 fold change” value was 0.00854. With RRIRHRPPRLPRPRPRPPFGPRP the “shrunken log2 fold change” value was -0.0898. With RRIRHRPPRLPRPRPRPCCSPRP the “shrunken log2 fold change” value was -0.313.
